Our source for the stoichiometry N values is PMC3046976.

The target in the assay is polysialate O-acetyltransferase NeuO, protein variant with four N-terminal RLKTQDS heptads (Escherichia coli K1 (prophage CUS-3)). Put plainly: crystal structure; apo-enzyme, space group P2_1, three monomers in the asymmetric unit, 1.7 Å; sitting drop at 20°C, 0.1 M Tris pH 7.2, 0.45 M glycine, 0.2 M NH4NO3, 7% PEG4000.

Usually stoichiometry N stands for the number of molecules, sites or subunits per partner or assembly. The substance “polysialate O-acetyltransferase NeuO, protein variant with four N-terminal RLKTQDS heptads (enzyme)” came in with a stoichiometry N of 3.
